Results taken from publication PMC9133651, “Elucidation of physico-chemical principles of high-density lipoprotein–small RNA binding interactions”.

Tests used:
Assay in all cases: MST
Settings in all cases: MST: 100 nM AF647 oligo (90 C 2 min, cooled) mixed 1:1 with ligand in PBS, RT, 5 min; EMSA: 1 uM AF546 oligo, UV 254 nm 15 min on ice, 4-16% NativePAGE, 0.5x …
[1] = target: native HDL (DGUC-HDL, apoA-I-containing lipoprotein particle) (Homo sapiens) (UniProt P02647)
[2] = target: native HDL (DGUC-HDL, apoA-I-containing lipoprotein particle) (Homo sapiens) (UniProt P02647); remark: listed apart in the source
[3] = target: native HDL (DGUC-HDL, apoA-I-containing lipoprotein particle) (Homo sapiens) (UniProt P02647); remark: listed apart in the source
[4] = target: native HDL (DGUC-HDL, apoA-I-containing lipoprotein particle) (Homo sapiens) (UniProt P02647); remark: listed apart in the source

Chain of native HDL (DGUC-HDL, apoA-I-containing lipoprotein particle) (Homo sapiens) (P02647 whole entry): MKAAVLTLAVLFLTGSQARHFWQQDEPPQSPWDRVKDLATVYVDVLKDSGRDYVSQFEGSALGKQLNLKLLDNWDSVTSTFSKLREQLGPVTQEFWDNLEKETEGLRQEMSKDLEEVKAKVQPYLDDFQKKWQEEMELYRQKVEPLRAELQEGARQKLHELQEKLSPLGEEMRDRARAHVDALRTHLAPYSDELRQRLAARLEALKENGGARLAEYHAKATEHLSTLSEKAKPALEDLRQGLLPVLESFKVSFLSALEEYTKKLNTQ

| Sequence | Kd [1] [µM] | Kd [2] [nM] | Kd [3] [nM] | Kd [4] [nM] |
| --- | --- | --- | --- | --- |
| CCGGCUAGCUCAGUCGGUAGAGCAUGAGAC [tDR-LysCTT-30] | 3.8 | – | – | – |
| CUGCCACGCGGGAGGCCCGGGUUCGAUUCC [tDR-GlyGCC-3'-tRH-30] | – | 85 | – | – |
| GCAUUGGUGGUUCAG [tDR-GlyGCC-5'-tRH-5'tRF-15] | – | 115 | – | – |
| GCAUUGGUGGUUCAGUGGUAGAAUUCUCGC / GCGAGAAUUCUACCACUGAACCACCAAUGC [dsRNA-tDR-GlyGCC-30] | – | – | 972 | – |
| GCAUUGGUGGUUCAGUGGUAGAAUUCUCGC [tDR-GlyGCC-30 (5'-tRH-30)] | 0.259 | 16 | 153 | 54 |
| GCGCCGCUGGUGUAGUGGUAUCAUGCAAGA [tDR-GlyCCC-30] | 34 | – | – | – |
| UGGUAGAAUUCUCGC [tDR-GlyGCC-5'-tRH-3'-tRF-15] | – | 124 | – | – |
